From US20150056222A1

Biological target: mouse PRLR on HEK293 cells (mouse) (UniProt Q08501)
Assay: FACS, HEK293/mPRLR cells

Sequence of mouse PRLR on HEK293 cells (mouse) (Q08501 20-608): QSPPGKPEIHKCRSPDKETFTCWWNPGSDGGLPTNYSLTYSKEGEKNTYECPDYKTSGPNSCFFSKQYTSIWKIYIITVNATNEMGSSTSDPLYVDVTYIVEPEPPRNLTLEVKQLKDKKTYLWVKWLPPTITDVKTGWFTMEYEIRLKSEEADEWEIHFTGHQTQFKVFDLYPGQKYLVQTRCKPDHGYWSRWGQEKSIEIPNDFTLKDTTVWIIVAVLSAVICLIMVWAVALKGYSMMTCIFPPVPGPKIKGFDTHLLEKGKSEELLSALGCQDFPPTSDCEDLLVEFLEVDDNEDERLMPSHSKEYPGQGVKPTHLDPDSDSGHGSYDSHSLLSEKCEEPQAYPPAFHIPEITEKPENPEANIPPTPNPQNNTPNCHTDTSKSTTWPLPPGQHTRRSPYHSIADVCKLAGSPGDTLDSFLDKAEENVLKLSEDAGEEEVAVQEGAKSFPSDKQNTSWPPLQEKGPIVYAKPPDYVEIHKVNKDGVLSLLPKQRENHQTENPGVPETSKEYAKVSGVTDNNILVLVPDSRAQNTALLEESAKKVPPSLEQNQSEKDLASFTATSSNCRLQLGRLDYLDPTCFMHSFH

B1: H1H6801P (antibody, human IgG1, V domains shown)
VH: QVQLQQSGPGLVKPSQTLSLTCVISGDSVSSNTAWNWVRQSPSRGLEWLGRTYYRSKWYNDYAVSVKSRITINPDTSKNQFSLLMNSVTPEDTAVYYCARVVRGLNYFDYWGQGTLVTVSS
VL: DIVMTQSPDSLAVSLGERATINCKSSQSVLYNSNNKNYLAWYQQKPGQPPKLLIYWSSSRESGVPDRFSGSGSGTDFTLTISGLQAEDVAIYYCQQYSTIPYTFGQGTKLEIK
An FACS Cell Binding (Fold Above Background) (fold above background) of 56 was found for B1 in this work.
